Target: T1, Recombinant Human FGF23 (Fibroblast Growth Factor 23) (UniProt Q9GZV9)
T1 sequence: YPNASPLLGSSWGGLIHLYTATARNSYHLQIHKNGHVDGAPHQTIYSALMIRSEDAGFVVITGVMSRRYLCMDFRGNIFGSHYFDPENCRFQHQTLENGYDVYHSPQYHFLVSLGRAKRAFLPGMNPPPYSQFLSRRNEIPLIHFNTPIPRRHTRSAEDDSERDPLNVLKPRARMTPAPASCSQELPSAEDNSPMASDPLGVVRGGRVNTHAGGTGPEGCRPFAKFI

Recombinant human uPA (urokinase plasminogen activator)
in vitro proteolysis of FGF23, silver stained SDS-PAGE gel: smaller fragments are generated on a silver stained SDS-PAGE gel indicating proteolytic cleavage

Source: US20200046811
